Data on 4 sequences can be found in patent publication US20180037620.

Test systems include TALEN ETV2 3-2 Right; TALEN ETV2 5-2 Left; TALEN ETV2 3-2 Left; TALEN ETV2 5-2 Right.
Holding throughout (test): cell_activity
Details in all cases: 79/528 porcine fibroblast clones; both TALEN pairs (5-2 and 3-2) plus HR oligo used together

In the case of “CCCCTAAGGGTCCTG (double strand) [ETV2 3-2 right half-site]”, the activity (% of clones homozygous for deletion) in the data set on TALEN ETV2 3-2 Right is 15. As to “CTGGCCGGAAATCCCC (double strand) [ETV2 5-2 left half-site]”, the activity (% of clones homozygous for deletion) with TALEN ETV2 5-2 Left worked out at 15. On to “GATCCCAAGTCACACC (double strand) [ETV2 3-2 left half-site]”, for which, in the data set with TALEN ETV2 3-2 Left, the activity (% of clones homozygous for deletion) was determined as 15. With “GGGCTGCACCAGGCT (double strand) [ETV2 5-2 right half-site]”, the activity (% of clones homozygous for deletion) in the data set with TALEN ETV2 5-2 Right turned out to be 15.
